Results from PMC4633494, “An antennal carboxylesterase from Drosophila melanogaster, esterase 6, is a candidate odorant-degrading enzyme toward food odorants” (Frontiers in Physiology, 2015).

Tests used:
Settings in all cases: concentrated culture medium, enzyme titrated, GC-MS assay at pH 8.0, 25 mM Tris-HCl, 200 µM substrate, BSA, 5% ethanol
[1] = substrate: CCCCCCCCOC(=O)CC; assay: competitive inhibition of 4-nitrophenyl acetate hydrolysis (Ki taken as Km); kcat from GC-MS substrate loss; type: biochemical, Drosophila melanogaster
From the text: (§1) competitive inhibition of 4-nitrophenyl acetate hydrolysis (Ki taken as Km); kcat from GC-MS substrate loss on EST-6 (EST-6^F), esterase 6

[2] = substrate: CCCCCOC(C)=O; assay: as above; type: biochemical, Drosophila melanogaster
From the text: as §1

[3] = substrate: CCCOC(=O)CCC; assay: cells, lysate or membranes

B1: EST-6 (EST-6^F), esterase 6 (Drosophila melanogaster) (protein)
chain: SDTDDPLLVQLPQGKLRGRDNGSYYSYESIPYAEPPTGDLRFEAPEPYKQKWSDIFDATKTPVACLQWDQFTPGANKLVGEEDCLTVSVYKPKNSKRNSFPVVAHIHGGAFMFGAAWQNGHENVMREGKFILVKISYRLGPLGFVSTGDRDLPGNYGLKDQRLALKWIKQNIASFGGEPQNVLLVGHSAGGASVHLQMLREDFGQLARAAFSFSGNALDPWVIQKGARGRAFELGRNVGCESAEDSTSLKKCLKSKPASELVTAVRKFLIFSYVPFAPFSPVLEPSDAPDAIITQDPRDVIKSGKFGQVPWAVSYVTEDGGYNAALLLKERKSGIVIDDLNERWLELAPYLLFYRDTKTKKDMDDYSRKIKQEYIGNQRFDIESYSELQRLFTDILFKNSTQESLDLHRKYGKSPAYAYVYDNPAEKGIAQVLANRTDYDFGTVHGDDYFLIFENFVRDVEMRPDEQIISRNFINMLADFASSDNGSLKYGECDFKDNVGSEKFQLLAIYIDGCQNRQHVEFP
notes: natural allele expressed behind its own signal peptide (secreted) with BacuVance baculovirus system (Genscript); no tag told
**Q.** B1 was tested. Which Km [1] did it give?
**A.** 3.16 mM

**Q.** What about the kcat [1] of the same protein?
**A.** 4520 ± 1680 s⁻¹

**Q.** And the Km [2]?
**A.** 2.93 mM

**Q.** What about the kcat [2] of the same protein?
**A.** 969 ± 215 s⁻¹

**Q.** What about the Km [3] of the same protein?
**A.** 18.3 mM

**Q.** And the kcat [3]?
**A.** 1670 s⁻¹
